Laboratory results published in publication PMC6522849.

Test system: T1, BsrR (Enterococcus faecium NW2), ORF:b1c0129b
T1 sequence: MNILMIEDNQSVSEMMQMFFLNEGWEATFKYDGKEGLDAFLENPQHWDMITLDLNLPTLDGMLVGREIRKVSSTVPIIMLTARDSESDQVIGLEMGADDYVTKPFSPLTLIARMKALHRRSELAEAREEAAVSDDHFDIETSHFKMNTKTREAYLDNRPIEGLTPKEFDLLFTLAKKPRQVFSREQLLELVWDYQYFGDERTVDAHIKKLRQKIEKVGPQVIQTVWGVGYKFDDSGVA
Experiment: EMSA

**Q.** For “AAATAAAACTCCTTTTTTATTGGAATAAGTTTATCTTAACAAAGAATGAACAAAAGACAAACCTTTCGTGAAGAATTCCTGAACATATTGGTTCAGTCAACAATTTAGAGTATACTATAAGAAGAGAATTTAGGAGGGAAAGA (double strand) [bsrX upstream intergenic region, 143 bp]”, which binding is on record?
**A.** The binding was “binds”.
